The source of these data is US7569579B2, “Cyclopropyl compounds as ccr5 antagonists” (SmithKline Beecham Corporation, priority 2002, dated 2009).

The target of this experiment is T1, human CCR5 chemokine receptor (Homo sapiens, UniProt P51681).
T1 construct: host or cells: Chinese Hamster Ovary (CHO) cells; membranes prepared from the cell pellet
The experiment in a line: CC-Chemokine Receptor-5 binding by scintillation proximity assay (CCR5 SPA), displacement of 125I-MIP1α. As to conditions: standard compound, 14-point concentration-response curve in triplicate. The protocol: CC-Chemokine Receptor-5 Binding by Scintillation Proximity Assay (CCR5 SPA) Scintillation Proximity Assay for the Human CC-Chemokine Receptor, CCR-5
This protocol describes a high-throughput screen using SPA binding to identify compounds that inhibit binding of ^125I-MIP1α to the human CCR5 chemokine receptor.
Human CCR5 receptors were expressed in Chinese Hamster Ovary (CHO) cells, registration # 12025. Cells were grown in suspension and a 50 to 80 ml CCR5 cell pellet was prepared. […]
The saturation curve binding experiment is performed by adding varying amounts of [^125I]MIP1α (0-8.5 nM to membranes and beads in concentrations chosen from the optimal protein/bead ratio. The data is analyzed using a non-linear curve-fitting program. The Kd and Bmax are derived from the curve. […]
For orientation: In a scintillation proximity assay essentially only radioactivity close to the scintillant gives light.

T1 sequence (P51681 whole entry): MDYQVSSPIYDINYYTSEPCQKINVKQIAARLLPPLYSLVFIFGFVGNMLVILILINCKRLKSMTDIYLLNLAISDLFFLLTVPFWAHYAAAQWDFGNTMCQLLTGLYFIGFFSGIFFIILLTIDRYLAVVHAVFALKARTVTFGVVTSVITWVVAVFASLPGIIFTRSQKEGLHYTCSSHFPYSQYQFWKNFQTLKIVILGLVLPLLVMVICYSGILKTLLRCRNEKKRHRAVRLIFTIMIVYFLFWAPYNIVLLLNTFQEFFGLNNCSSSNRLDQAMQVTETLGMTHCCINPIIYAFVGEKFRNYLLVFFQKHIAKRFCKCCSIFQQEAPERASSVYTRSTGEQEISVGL

Consider “MIP1α: standard compound of the CCR5 SPA; natural chemokine ligand of CCR5 (Peprotech)”, for which the “average historical pKi” value is on record as 7.6.
